This test has as its target T1, S6N, N-terminal fragment of Surfeit locus protein 6 (SURF6), residues 1-182 (human, UniProt O75683 1-182).
T1 construct: Surfeit locus protein 6 (SURF6), human, 361 amino acids; N-terminal construct of residues 1-182 with R-motifs R1 and R2; In imaging experiments 10% was labelled with Alexa Fluor 647 at Cys19; also called SURF6 N-terminal construct; source: E. coli BL21 Rosetta 2 (DE3), purified from inclusion bodies (Ni-NTA under denaturing conditions, TEV cleavage, C4 HPLC)
T1 sequence (looked up): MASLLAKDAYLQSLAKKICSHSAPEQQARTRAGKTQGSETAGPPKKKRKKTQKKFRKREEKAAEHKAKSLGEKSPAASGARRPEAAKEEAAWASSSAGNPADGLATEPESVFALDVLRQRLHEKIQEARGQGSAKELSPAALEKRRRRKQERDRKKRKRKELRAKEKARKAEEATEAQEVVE
As to the kind of experiment: not stated; method and conditions not shown in the main text (Supplementary Fig. 13). As to conditions: both partners purified.

Usually Kd stands for a measure of binding affinity in units of concentration.

B1: IDR of NPM1 (domain or fragment, UniProt P06748 120-240, looked up)
chain: EEDAESEDEEEEDVKLLSISGKRSAPGGGSKVPQKKVKLAADEDDDDDDEEDDDEDDDDDDFDDEEAEEKAPVKKSIRDTPAKNAQKSNQNGKDSKPSSTPRSKGQESFKKQEKTPKTPKG
notes: Nucleophosmin (NPM1), central intrinsically disordered region; also called NPM1-IDR
B1 showed a dissociation constant Kd of 350 nM.
